According to paper PMC10739154, “Reinvestigation of Disulfide-bonded Oligomeric Forms of the Unfolded Protein Response Transducer ATF6” (Cell Structure and Function, 2019):
Substitutions are numbered along the chain they refer to. Numbers in names are those of the source. Each block holds one molecule with its values, some of them ahead of it.

Assays:
[1] = target: C467A mutant of ATF6α(Δ244)-TAP (human); experiment: non-reducing SDS-PAGE with immunoblotting; ATF6α-TAP constructs of various lengths at the N-terminus in HCT116 DKO cells; lysates on non-reducing SDS-PAGE; blot with anti-Myc; shows disulfide-bonded forms
[2] = target: C467A mutant of ATF6α(Δ331)-TAP (human); experiment: as above
[3] = target: C467A mutant of ATF6α(Δ355)-TAP (human); experiment: as above
[4] = target: C467A mutant of ssATF6α(C)-TAP (human); experiment: as above
[5] = target: C618A mutant of ATF6α(Δ244)-TAP (human); experiment: as above
[6] = target: C618A mutant of ATF6α(Δ331)-TAP (human); experiment: as above
[7] = target: C618A mutant of ATF6α(Δ355)-TAP (human); experiment: as above
[8] = target: C618A mutant of ssATF6α(C)-TAP (human); experiment: as above
[9] = target: the molecule itself; experiment: non-reducing SDS-PAGE with immunoblotting; one form of ATF6α in the cells; lysis in 1% NP-40 buffer (50 mM Tris/HCl pH 7.5, 150 mM NaCl, 10 mM N-ethylmaleimide), boiled in SDS sample buffer without dithiothreitol; blot with anti-ATF6α; shows disulfide-bonded forms
[10] = target: the molecule itself; experiment: non-reducing SDS-PAGE with immunoblotting; ATF6α-TAP constructs of various lengths at the N-terminus in HCT116 DKO cells; lysates on non-reducing SDS-PAGE; blot with anti-Myc; shows disulfide-bonded forms

stoichiometry N [1]: 2
Molecule: C467A mutant of ATF6α(Δ244)-TAP (domain or fragment)

stoichiometry N [2]: 2
Molecule: C467A mutant of ATF6α(Δ331)-TAP (domain or fragment)

stoichiometry N [3]: 2
Molecule: C467A mutant of ATF6α(Δ355)-TAP (domain or fragment)

stoichiometry N [4]: 2
Molecule: C467A mutant of ssATF6α(C)-TAP (domain or fragment)

stoichiometry N [5]: 2
Molecule: C618A mutant of ATF6α(Δ244)-TAP (domain or fragment)

stoichiometry N [6]: 2
Molecule: C618A mutant of ATF6α(Δ331)-TAP (domain or fragment)

stoichiometry N [7]: 2
Molecule: C618A mutant of ATF6α(Δ355)-TAP (domain or fragment)

stoichiometry N [8]: 2
Molecule: C618A mutant of ssATF6α(C)-TAP (domain or fragment)

Continued, molecule first:

B1: ATF6α (endogenous, HCT116 cells) (natural protein, human (endogenous in HCT116), UniProt P18850 1-670, looked up)
chain: MGEPAGVAGTMESPFSPGLFHRLDEDWDSALFAELGYFTDTDELQLEAANETYENNFDNLDFDLDLMPWESDIWDINNQICTVKDIKAEPQPLSPASSSYSVSSPRSVDSYSSTQHVPEELDLSSSSQMSPLSLYGENSNSLSSAEPLKEDKPVTGPRNKTENGLTPKKKIQVNSKPSIQPKPLLLPAAPKTQTNSSVPAKTIIIQTVPTLMPLAKQQPIISLQPAPTKGQTVLLSQPTVVQLQAPGVLPSAQPVLAVAGGVTQLPNHVVNVVPAPSANSPVNGKLSVTKPVLQSTMRNVGSDIAVLRRQQRMIKNRESACQSRKKKKEYMLGLEARLKAALSENEQLKKENGTLKRQLDEVVSENQRLKVPSPKRRVVCVMIVLAFIILNYGPMSMLEQDSRRMNPSVSPANQRRHLLGFSAKEAQDTSDGIIQKNSYRYDHSVSNDKALMVLTEEPLLYIPPPPCQPLINTTESLRLNHELRGWVHRHEVERTKSRRMTNNQQKTRILQGALEQGSNSQLMAVQYTETTSSISRNSGSELQVYYASPRSYQDFFEAIRRRGDTFYVVSFRRDHLLLPATTHNKTTRPKMSIVLPAININENVINGQDYEVMMQIDCQVMDTRILHIKSSSVPPYLRDQQRNQTNTFFGSPPAATEATHVVSTIPESLQ
notes: ATF6α, endogenous in human colorectal carcinoma-derived HCT116 cells; also called pATF6α(P); source: endogenous, HCT116 WT cell lysate
stoichiometry N [9]: 2

B2: HA-ATF6α(WT) (natural protein, human, UniProt P18850 1-670, looked up)
chain: B1 chain
notes: ATF6α, human, full length; Plasmid from R. Prywes (Wang et al., 2000); also called HA-tagged WT; HA-tagged ATF6α WT; source: HCT116 ATF6α/β-DKO cells, transfected, in lysate; not shown: HA, N-terminal, kept
stoichiometry N [9]: 2

B3: EGFP-ATF6α(WT) (natural protein, human, UniProt P18850 1-670, looked up)
chain: B1 chain
notes: ATF6α, human, tagged with EGFP at the N-terminus; Constructed in previous studies (Nadanaka et al., 2007; 2004); source: HCT116 ATF6α/β-DKO cells, transfected, in lysate; not shown: EGFP, N-terminal, kept
stoichiometry N [9]: 2

B4: C618A mutant of ATF6α-TAP (natural protein, human, UniProt P18850 1-670, looked up)
chain: B1 chain with C618A
notes: ATF6α, human, full length, C618A; also called ATF6α(C618A)-TAP; source: HCT116 ATF6α/β-DKO cells, transfected, in lysate
stoichiometry N [10]: 2

B5: C467A mutant of ATF6α-TAP (natural protein, human, UniProt P18850 1-670, looked up)
chain: B1 chain with C467A
notes: ATF6α, human, full length, C467A; also called ATF6α(C467A)-TAP; source: HCT116 ATF6α/β-DKO cells, transfected, in lysate
stoichiometry N [10]: 2

B6: EGFP-ATF6α(C467A) (natural protein, human, UniProt P18850 1-670, looked up)
chain: B1 chain with C467A
notes: ATF6α, human, C467A, tagged with EGFP at the N-terminus; Constructed in previous studies (Nadanaka et al., 2007; 2004); source: HCT116 ATF6α/β-DKO cells, transfected, in lysate; not shown: EGFP, N-terminal, kept
stoichiometry N [9]: 2

B7: HA-ATF6α(C467A) (natural protein, human, UniProt P18850 1-670, looked up)
chain: B1 chain with C467A
notes: ATF6α, human, full length, C467A; Constructed in previous studies (Nadanaka et al., 2007; 2004); also called HA-tagged C467A mutant; source: HCT116 ATF6α/β-DKO cells, transfected, in lysate; not shown: HA, N-terminal, kept
stoichiometry N [9]: 2

B8: EGFP-ATF6α(C618A) (natural protein, human, UniProt P18850 1-670, looked up)
chain: B1 chain with C618A
notes: ATF6α, human, C618A, tagged with EGFP at the N-terminus; Constructed in previous studies (Nadanaka et al., 2007; 2004); source: HCT116 ATF6α/β-DKO cells, transfected, in lysate; not shown: EGFP, N-terminal, kept
stoichiometry N [9]: 2
